Legend:
immunoglobulin HFc [1] = molecular target: T1, immunoglobulin HFc (mouse, UniProt P01868 98-324 = IgG part); assay: ELISA-like assay, 10 ng PDGF BB immobilized
T1 construct: domain: hinge, CH2 and CH3 domains; Control without a nonantibody portion; also called the HFc portion of IgG; control immunoglobulin HFc
Procedure: After a two hour incubation, wells were washed, and alkaline phosphatase substrate was added to the wells in 100 mM sodium bicarbonate (pH 9.8)-1 mM magnesium chloride. After another incubation, the presence of the product of the chromogenic substrate was measured at 405 nm using an ELISA reader.

[2] = molecular target: S. aureus protein A Sepharose CL-4B (S. aureus, UniProt P38507 37-477); assay: precipitation of 35S-labeled conditioned medium
Procedure: Cells were incubated in the presence of radiolabeled amino acids to examine the expression of the fusion proteins. […] The immunoprecipitated proteins were then analyzed by SDS-polyacrylamide gel electrophoresis (PAGE) and immunoprecipitated species were visualized after fluorography.
Isolated proteins were analyzed using SDS-PAGE.

α PDGFR = molecular target: T2, α PDGFR (UniProt P16234 24-1089, limits assumed); assay: Scatchard analysis
T2 construct: also called α PDGF receptor

β PDGFR = molecular target: T3, β PDGFR (UniProt P09619 33-1106, limits assumed); assay: Scatchard analysis
T3 construct: also called β PDGF receptor

D2-HFc fusion protein = molecular target: T4, D2-HFc fusion protein (mouse, UniProt P21803 22-156; P01868 98-324 = IgG part, limits assumed); assay: 50% displacement of 125I-aFGF by unlabeled aFGF, fusion protein captured on Gamma Bind G (Scatchard analysis)
T4 construct: domain: Ig-like effector domain D2;domain: hinge, CH2 and CH3 domains; Disulfide-linked dimer (55 kd reduced, 110 kd nonreduced); also called KGFR-HFc (D2)
Procedure: (§1) Ey et al., Immunochem. 15: 429 (1978). […] Bovine brain aFGF was obtained from Upstate Biotechnology, Inc. (Lake Placid, N.Y.). ^125I-aFGF was prepared as described by Friesel et al., J. Biol. Chem. 261: 7581 (1986).
(§2) Bound ligand recovered from the pellets was counted in a Beckman gamma counter. Specific binding was defined as the difference between binding in the absence or presence of excess unlabeled ligand.

D2/3-HFc fusion protein [3] = molecular target: T5, D2/3-HFc fusion protein (mouse, UniProt P21803 22-262; P01868 98-324 = IgG part, limits assumed); assay: as above
T5 construct: domain: Ig-like effector domains D2 and D3;domain: hinge, CH2 and CH3 domains; Secreted by NIH 3T3 transfectants as a disulfide-linked dimer (80 kd reduced, 160 kd nonreduced); Cloned into HFc-pUC 18 without the heterologous signal peptide; also called KGFR-HFc (D2/3)
Procedure: as §1, §2

immunoglobulin HFc [4] = molecular target: T1, immunoglobulin HFc; assay: immunohistochemistry on normal human skin
D2/3-HFc fusion protein [5] = molecular target: T5, D2/3-HFc fusion protein; assay: 50% displacement of 125I-KGF by unlabeled KGF, fusion protein captured on Gamma Bind G (Scatchard analysis)
Procedure: as §1, §2
The dissociation constant for each fusion protein was determined by measuring the concentrations of unlabeled ligand required for 50% displacement of radiolabeled ligand.

T2 sequence (P16234 24-1089 limits assumed): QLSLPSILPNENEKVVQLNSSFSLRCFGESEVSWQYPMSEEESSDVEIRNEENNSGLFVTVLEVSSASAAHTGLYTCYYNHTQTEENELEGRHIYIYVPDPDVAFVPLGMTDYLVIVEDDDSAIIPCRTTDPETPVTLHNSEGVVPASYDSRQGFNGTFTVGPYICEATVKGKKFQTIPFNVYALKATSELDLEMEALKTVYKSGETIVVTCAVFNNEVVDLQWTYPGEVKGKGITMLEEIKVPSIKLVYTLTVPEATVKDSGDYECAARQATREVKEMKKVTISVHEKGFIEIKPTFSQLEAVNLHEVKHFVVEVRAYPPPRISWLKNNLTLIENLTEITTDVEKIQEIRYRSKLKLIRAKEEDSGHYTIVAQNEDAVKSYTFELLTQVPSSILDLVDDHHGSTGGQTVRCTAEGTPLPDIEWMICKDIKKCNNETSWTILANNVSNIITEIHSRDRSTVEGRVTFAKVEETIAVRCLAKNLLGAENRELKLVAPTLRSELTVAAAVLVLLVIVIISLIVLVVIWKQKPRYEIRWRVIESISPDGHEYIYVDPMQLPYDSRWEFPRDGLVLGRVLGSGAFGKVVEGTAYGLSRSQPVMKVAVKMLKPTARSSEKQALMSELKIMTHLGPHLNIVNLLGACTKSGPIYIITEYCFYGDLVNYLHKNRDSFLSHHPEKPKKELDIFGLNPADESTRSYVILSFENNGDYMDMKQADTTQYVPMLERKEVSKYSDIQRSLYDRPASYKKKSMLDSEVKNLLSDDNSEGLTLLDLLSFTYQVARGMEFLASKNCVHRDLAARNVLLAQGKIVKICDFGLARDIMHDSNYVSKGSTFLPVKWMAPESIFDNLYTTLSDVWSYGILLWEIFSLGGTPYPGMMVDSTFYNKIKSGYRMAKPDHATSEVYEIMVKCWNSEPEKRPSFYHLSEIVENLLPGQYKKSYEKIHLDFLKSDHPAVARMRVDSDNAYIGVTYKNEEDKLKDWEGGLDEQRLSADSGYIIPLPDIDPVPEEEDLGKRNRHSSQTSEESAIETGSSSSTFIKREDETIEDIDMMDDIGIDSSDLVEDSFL
T3 sequence (P09619 33-1106 limits assumed): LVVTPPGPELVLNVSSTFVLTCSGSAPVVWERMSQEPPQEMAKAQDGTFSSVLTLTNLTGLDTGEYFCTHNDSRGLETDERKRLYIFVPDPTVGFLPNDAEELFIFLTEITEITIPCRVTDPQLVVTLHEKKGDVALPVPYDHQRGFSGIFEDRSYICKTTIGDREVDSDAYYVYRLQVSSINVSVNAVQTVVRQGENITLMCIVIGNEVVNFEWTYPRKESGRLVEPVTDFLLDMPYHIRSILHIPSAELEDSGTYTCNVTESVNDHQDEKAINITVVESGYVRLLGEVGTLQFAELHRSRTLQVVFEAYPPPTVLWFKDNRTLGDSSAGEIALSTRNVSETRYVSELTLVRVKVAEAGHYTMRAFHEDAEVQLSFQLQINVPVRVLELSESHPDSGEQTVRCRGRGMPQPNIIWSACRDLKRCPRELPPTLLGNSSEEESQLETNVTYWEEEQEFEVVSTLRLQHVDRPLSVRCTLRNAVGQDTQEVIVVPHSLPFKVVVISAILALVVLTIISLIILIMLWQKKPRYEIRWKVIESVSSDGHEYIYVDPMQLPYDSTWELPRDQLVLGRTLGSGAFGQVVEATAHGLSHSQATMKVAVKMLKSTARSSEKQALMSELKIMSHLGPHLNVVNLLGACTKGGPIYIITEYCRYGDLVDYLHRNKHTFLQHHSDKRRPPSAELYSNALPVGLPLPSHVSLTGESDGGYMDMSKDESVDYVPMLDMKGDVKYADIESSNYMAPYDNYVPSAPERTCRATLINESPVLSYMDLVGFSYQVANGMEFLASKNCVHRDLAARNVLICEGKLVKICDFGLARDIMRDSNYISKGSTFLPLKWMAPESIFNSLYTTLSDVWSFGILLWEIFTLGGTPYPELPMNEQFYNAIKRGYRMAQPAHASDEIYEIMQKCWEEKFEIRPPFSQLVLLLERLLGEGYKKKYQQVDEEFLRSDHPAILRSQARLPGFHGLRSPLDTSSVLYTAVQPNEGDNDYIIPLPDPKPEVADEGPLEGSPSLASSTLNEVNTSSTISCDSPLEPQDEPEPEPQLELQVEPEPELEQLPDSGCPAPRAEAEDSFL

B1: PDGF BB (ligand, UniProt P01127 82-190, looked up)
chain: SLGSLTIAEPAMIAECKTRTEVFEISRRLIDRTNANFLVWPPCVEVQRCSGCCNNRNVQCRPTQVQLRPVQVRKIEIVRKKPIFKKATVTLEDHLACKCETVAAARPVT
notes: also called PDGF BB protein
binding result (immunoglobulin HFc [1]): no binding

B2: KGF-HFc fusion protein (Fc fusion, UniProt P21781 32-194, looked up)
chain: CNDMTPEQMATNVNCSSPERHTRSYDYMEGGDIRVRRLFCRTQWYLRIDKRGKVKGTQEMKNNYNIMEIRTVAVGIVAIKGVESEFYLAMNKEGKLYAKKECNEDCNFKELILENHYNTYASAKWTHNGGEMFVALNQKGIPVRGKKTKKEQKTAHFLPMAITVPRDCGCKPCICTVPEVSSVFIFPPKPKDVLTITLTPKVTCVVVDISKDDPEVQFSWFVDDVEVHTAQTQPREEQFNSTFRSVSELPIMHQDWLNGKEFKCRVNSAAFPAPIEKTISKTKGRPKAPQVYTIPPPKEQMAKDKVSLTCMITDFFPEDITVEWQWNGQPAENYKNTQPIMNTNGSYFVYSKLNVQKSNWEAGNTFTCSVLHEGLHNHHTEKSLSHSPGK
notes: Disulfide-linked dimer, p94-98 nonreduced, 48 kd reduced
binding result [2]: binds

B3: PDGF B-HFc fusion protein (Fc fusion, UniProt P01127 82-190, looked up)
chain: SLGSLTIAEPAMIAECKTRTEVFEISRRLIDRTNANFLVWPPCVEVQRCSGCCNNRNVQCRPTQVQLRPVQVRKIEIVRKKPIFKKATVTLEDHLACKCETVAAARPVTVPRDCGCKPCICTVPEVSSVFIFPPKPKDVLTITLTPKVTCVVVDISKDDPEVQFSWFVDDVEVHTAQTQPREEQFNSTFRSVSELPIMHQDWLNGKEFKCRVNSAAFPAPIEKTISKTKGRPKAPQVYTIPPPKEQMAKDKVSLTCMITDFFPEDITVEWQWNGQPAENYKNTQPIMNTNGSYFVYSKLNVQKSNWEAGNTFTCSVLHEGLHNHHTEKSLSHSPGK
notes: Expressed as an 84 kd dimeric protein
Kd (α PDGFR): 3.2 nM
Kd (β PDGFR): 1.4 nM

B4: bovine brain aFGF (ligand, UniProt P03968 16-155, looked up)
chain: FNLPLGNYKKPKLLYCSNGGYFLRILPDGTVDGTKDRSDQHIQLQLCAESIGEVYIKSTETGQFLAMDTDGLLYGSQTPNEECLFLERLEENHYNTYISKKHAEKHWFVGLKKNGRSKLGPRTHFGQKAILFLPLPVSSD
notes: also called radioiodinated bovine fibroblast growth factor (aFGF); 125I-aFGF
Kd (D2-HFc fusion protein): 0.96 nM
Kd (D2/3-HFc fusion protein [3]): 0.52 nM

B5: PDGF A-HFc fusion protein (Fc fusion)
chain: not shown
notes: Expressed as an 84-89 kd dimeric protein
Kd (α PDGFR): 1.3 nM
binding result (β PDGFR): no binding

B6: keratinocyte growth factor (KGF) (ligand, human, UniProt P21781 32-194, looked up)
chain: CNDMTPEQMATNVNCSSPERHTRSYDYMEGGDIRVRRLFCRTQWYLRIDKRGKVKGTQEMKNNYNIMEIRTVAVGIVAIKGVESEFYLAMNKEGKLYAKKECNEDCNFKELILENHYNTYASAKWTHNGGEMFVALNQKGIPVRGKKTKKEQKTAHFLPMAIT
notes: also called recombinant human KGF; recombinant KGF
binding result (immunoglobulin HFc [4]): no binding
Kd (D2/3-HFc fusion protein [5]): 0.12 nM
